Consider 41 sequences from the nanobody polyreactivity screen of Harvey et al. (2022).

The nature of the data set: yeast display, Sf9 membrane polyspecificity reagent, FACS + sequencing; frameworks hold sequencing errors. The procedure, abridged: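 After 36–48 hours of galactose induction, yeast (Saccharomyces cerevisiae BJ5465) displaying a synthetic nanobody library were stained at 4 °C for 1 hour with 10% biotinylated, detergent-solubilized Sf9 membrane reagent. Streptavidin microbeads enriched the stained cells before FACS sorting into low and high (top ~1%) gates on anti-HA and streptavidin fluorescence. Each clone's polyreactivity label reflects its gate of origin.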
For the sequence “QVQLVESGGGLVQAGGSLRLSCAASGIIISYYTMGWYRQAPGKERELVAAITGSGGSTYYADSVKGRFTISRDNAKNTVYLQMNSLKPEDTAVYYCAADPSLRQYAYFDYYYWGQGTQVTVSS”, the “polyreactivity (PSR sort gate)” value was “low polyreactivity”. Consider “QVQLVESGGGLVQAGGSLRLSCAASGITFPVYTMGWYRQAPGKERALVAAISRSGGRTYYADSVKGRFTISSDNAKNTVYLQMNSLKPEDTAVYYCAVRQATVTGGGYWGQGTQVTVSS”, for which the “polyreactivity (PSR sort gate)” value is “high polyreactivity”. Next, “QVQLVESGGGLVQAGGSLRLSCAASGSIFNIYDMGWSRQAPGKERELVAGISWDGDSTYYADSVKGRFTISRDNAKNTVYLQMNSLKPEDTAVEYCAAVYTRAHISYYYWGQGTQVTVSS”: “high polyreactivity”; “QVQLVESGGGLVQAGGSLRLSCAASGSIIRSYTMGWYRQAPGKERELVASISRTGGSTHYADSVKGRFTISRDNAKNTVYLQMNSLKPEDTAVYYCNADTRRNRLMDYWGQGTQVTVSS”: “high polyreactivity”; “QVQLVESGGGLVQAGGSLRLSCAASGSTLPANAMGWYRQAPGKERELVAAITITTDGSTYYADSVKGRFTISRDNAKNTVYLQMNSLKAEDTAVYYCAVARYRYHIRKMGYWGQGTQVTVSS”: “low polyreactivity”.

In the case of “QVQLVESGGGLVQAGGSLRLSCAASGFTFFSNAMGWYRQAPGKERELVAAITSSGGSTYADSVKGRFTISRDNAKNTVYLQMNSLKPEDTAVYYCAAELYDYGDLYYSEYDYWGQGTQVTVSS”, the “polyreactivity (PSR sort gate)” value was “low polyreactivity”. Take “QVQLVESVGGLVQAGGSLRLSCAASGFIFSPYAMGWYRQAPGKERELVAAISWNGGRTYYADSVKGRFTISRDYAKNTVYLQMNSLKPEDTAVYYCAASFRNPYSHGYWGQGTQVTVSS”: the “polyreactivity (PSR sort gate)” value is “high polyreactivity”. As to “QVQLVESGGGLVQAGGSLRLTCAASGNIFDLYAMGWYRQAPGTERELVASITSDGITYYADSVKGRFTISRDNAKNTVYLQMNSLKPEDSAVYYCAVVRSYRYLPRGDYWGQGTQVTVSS”, the “polyreactivity (PSR sort gate)” value is “low polyreactivity”.

Regarding “QVQLVESGGGLVQAGGSLRLSCAASGNTFSSYAMGWYRQAPGKERELVAAISRRGGSTYYADSVKGRFTISRDNAKNTVYLQMNSLKPEDTAVYYCAADGTGFRYLRYDYWGQGTQVTVSS”, the “polyreactivity (PSR sort gate)” value is on record as “high polyreactivity”.

Turning to “QVQLVESGGGLVQAGGSLRLSCAASGSTFAYYAMGWYRQAPGKERELVAAITSSGGSTYYADSVKGRFTISRDNAKNTVYLQMNSLKPEDTAVYYCNARYRRKSWRPFDYWGQGTQVTVSS”, the “polyreactivity (PSR sort gate)” value is given as “high polyreactivity”. In the case of “QVQLVESGRGLVQAGGSLRLSCAASGSTRRYVMGWYRQAPGKERELVAVISRGGSTYYADSVKGRFTISRDNAKNSVYLQMNSLKPEDTAVYYCNGQPVIPRGGDYWGQATQVTVSS”, the “polyreactivity (PSR sort gate)” value is listed as “high polyreactivity”.

On to “QVQLVESGGGLVQAGGSLRLSCAASGSTFHRYAMGWYRQAPGKERELVATITSRGGITYYADSVKGRFTISRDNSKNTVYLQMNSLNPEDTALYYCNTEDGTTPQYGYDQGMYYWGQGTQVTVSS”, for which the “polyreactivity (PSR sort gate)” value was “low polyreactivity”. For the sequence “QVQLVESGGGLVQAGGSLPLSCAASGRIFAFNVMGWYRQAPGKERELVAAISTRDGSTYYADSVKGRFTISRDNAKNTVYLQMNSLTPEDTAVYYCNAVVRYYDWGYWDYDYWGQGTQVTVSS”, the “polyreactivity (PSR sort gate)” value is on record as “low polyreactivity”. Next, “QVQLVESGGGLVQAGGSLRLSCAAAGRISYANAMGWYRQAPGKERELVASITYSAGSTYADSVKGRFTISRDNAKNTVYLQMNSLKPEDTAVYYCAKRPSQHYRSYLMDYWGQGTQVTVSS”: “low polyreactivity”; “QVQLVESGGGLVQAGGSLRLSCAASGFTFIGYAMGWYRQAPGKERELVAAITQSGGSTFYADSVKGRFTISRDNAKNTVYLQMNSLKPEDTAVYYCNAYRKFRYWGQGTQVTVSS”: “low polyreactivity”.

On to “QVQLVESVGGLVQAGGSLRLSCAASGRTFDSNAMGWYRQAPGKERELVAAISYSGGSTYYADSVKGRFTISRDNAKNTVYLQMNSLKPEDTAVYYCNAGAVHKKPARDYWGQGTQVTVSS”, for which the “polyreactivity (PSR sort gate)” value is “low polyreactivity”. Next, “QVQLVESGGGLVQAGGSLRLSCAASGRIFDLYAMGWYRQAPGKERELVAAITWRGGSTYYADSVKGRFTISRDNAKNTVYLQMNSLKPEDTAVYYCAARSYYISPWRFDYWGQGTQVTVSS”: “high polyreactivity”. The value for “QVQLVESGGGLVQAGGSLRLSCAASGSIFDWNAMGWYRKAPGKERELVASITGSGGGTNYADSVKGRFTISRDNAKNTVYLQMNSLKPEDTAVYYCAAEVDYSYWPEYARKYYYWGQGTQVTVSS” was “low polyreactivity”.

Turning to “QVQLVESGGGLVQAGGSLRLSSAASGRIFGFNAMGWYRPAPGKERELVAAITWGVGSTYYADSVKGRFTISRDNAKNTVYLQMNSLKPEDTAVYYCAAVSYAAVYGFDYWGQGTQVTVSS”, the “polyreactivity (PSR sort gate)” value is “high polyreactivity”. As to “QVQLVESGGGLVQAGGSLRLSCAASGFTFASNAMGWYRQAPGKERELVAAITWGTGTTSYADSVKGRFTISRDYAKNTVYLQMNSLKPEDTAVYYCNARVGPELHDYWGQGTQVTVSS”, the “polyreactivity (PSR sort gate)” value is recorded as “low polyreactivity”.

As for “QDQLVESGGGLVQAGGSLRLSCAASGLNFVRYAMGWYRQAPGKERELVATITWSGGTYYADSVKGRFTISRDNAKNTVYLQMNSLKPEDTAVSYCAADTPTPGLFYWFYPHRGYWGQGTQVTVSS”, the “polyreactivity (PSR sort gate)” value is “low polyreactivity”. As for “QVQLVESGGGLVQAGGSLRLSCAASGSIFTLYAMGWYRQAPGKEREFVAGISFSTGRTYYADSVKGRFSISRDNAKNTVYLQMNSLKPEDTAVYYCAAYVSHYWYGVYRDGYWGQGTQVTVSS”, the “polyreactivity (PSR sort gate)” value is reported as “low polyreactivity”.

“QVQLVESGGGLVQAGGSLRLSCAASGRIFWVYAMGWYRQAPGKERELVAAISTRGGSTYYADSVKGRFTISRDNAKNRVYLQKNRLKPDDTAVYYCAADYDDKYDYWGQGTQVTVSS”: the “polyreactivity (PSR sort gate)” value is “low polyreactivity”. Regarding “QVQLVESGGGLVQAGGILRLSCAASGIISYDYDMGWYRPSPGKERELVAAISTSGGTTYYADSVKGRFTISRDNAKNTVYLQMNSLKPEDTAVYYCAADNYVGYHWYNYWGQGTQVTVSS”, the “polyreactivity (PSR sort gate)” value was “high polyreactivity”. Turning to “QVQLVESGGGLVQAGGSLRLSCAASGITFNYYAKGSYRQAPGKERELVATINRSGGTTYYADSVKGRFTISRDNAKNTVYLQMNSLKPAVTAVYYCGALSKTRGGYWGQGTQVTVSS”, the “polyreactivity (PSR sort gate)” value is given as “high polyreactivity”.

Turning to “QVQLVESGGGLVQAGGSLRLSCAASGRIFVKYAMGWYRQAPGKERELVAAITNSGGRTYYAASVKGRFTISRDNAKNTVYLQMNSLKPEDTAVYYCAALYHASTRQMDYWGQGTQVTVSS”, the “polyreactivity (PSR sort gate)” value is on record as “high polyreactivity”. Turning to “QVQLVESGGGLVQAGGSLRLSCAASGTTNDYYDMGWYRQAPGKERELDAAISSGGDSTYYADSVMGRFTISRDNAKNTVYLQMNSLKPEDTAVYYCAAAVYYGQSVWYYYWGQGTEVTVSS”, the “polyreactivity (PSR sort gate)” value is “high polyreactivity”. Take “QVQLVESGGGLVQAGGSLRLSCAASGFIFGYNAMGWYRQSPGKERELVAAISTRGGSTYYADSVKGRFTISRDNAKNTVYLQMNSLKPEDTAVYYCNKVTRVPFDSWGQGTQVTVSS”: the “polyreactivity (PSR sort gate)” value is listed as “high polyreactivity”.

For “QVQLVESGGGLVQAGGSLRLSCAASGLTFNAYPMGCYRQAPGKEWELVAAITSRGSSTYYADSVKGRFTISRDNAKNTVYLQMNSLKPEDTAVYYCAARQRGYYYSRRYDYWGQGTQVTVSS”, the “polyreactivity (PSR sort gate)” value is reported as “high polyreactivity”. Regarding “QVQLVESGGGLVQSGGSLRLSCAASGINFLYYAMGWYIQAPGKERELVARINRSGGSTYYADSVKGRFTISRDNAKYTVYLQMNSLKPEDSAVYYCAADYLYRSPAYEHYYWGQGTQVTVSS”, the “polyreactivity (PSR sort gate)” value was “high polyreactivity”. With “QVLLVESGGGLVQAGGSLRVSCAASGSTFPYYAMGWYRQAPGKERELVAAITSSASTYYADSVKGRFTISRDNAKNTVYLQMNSLKPEDTAVYYCAVRTPYRLSRWRVGYWGQGTQVTVSS”, the “polyreactivity (PSR sort gate)” value is “high polyreactivity”. In the case of “QVQLVESGGGLVQAGGSLRLSCAASGFTFWDYAMGWYRQAPGKERELVATISVGGGSTYYADSVKGRFTISRDNSKNSVYLQMNSLKPEDTAVYYCAADRSYYLAGYDYWGQGTQVPVSS”, the “polyreactivity (PSR sort gate)” value is listed as “low polyreactivity”. In the case of “KVQLVESGGGLVQAGGSLRLSCAASGSIFSFYTKGWYRQAPGKERELVAAINWSGSRTYYADSVKGRFTISRDNAKNTVYLQMNSLKPVDTAVYYCAAYLWFYVRYEYWGQGTQVTVSS”, the “polyreactivity (PSR sort gate)” value is on record as “high polyreactivity”. As to “QVQLVESGGGLVQAGGSLRFSCAASGFTFASNAMGWYRQAPGQERELVAAITSGGRTYYADSVKGRFTISRDNAKNTVYLQMNSLKPEDTAVYYCAKPNGALKRYYYWGQGTQVTVSS”, the “polyreactivity (PSR sort gate)” value was “high polyreactivity”.

Turning to “QVQLVESGGGLVQAGGSLRLSCAASGGTFVYYAMGWYRQAPGKERELVAAISGSGGRTYYADSVKGRFTISRDNAKNTVYLQMNSLKPEDTAVYFCAAVHLNRYWGQGTQVTVSS”, the “polyreactivity (PSR sort gate)” value is “high polyreactivity”.

Regarding “QVQLVESGGGLVQAGGSLRLSCAASGFIFVRYAMGWYRQAPGKERELVAAITRSGTSTYYADSVKGRFTISRDNAKTTVNLQMNSLKPEDTAVYYCAKEVRSRYGYWGQGTQVTVSS”, the “polyreactivity (PSR sort gate)” value was “high polyreactivity”. For “QVQLVESGGALVQAGGSLRLSCAASGSIYGGYTMGWYRHAPGKEMEFVAAISRRGGNTYYADSVKGRFTISRDNAKNTVYLQMNSLKPEDTAVYYCAVRWPSARIQVKLDYWGQGTQVTVSS”, the “polyreactivity (PSR sort gate)” value is listed as “high polyreactivity”.

“QVQLVESGGGLVQAGGSLRLSCAASGSIFSSYAMGWYRQAPGKERELVAAISSGGGITYYADSVKGRFTISRDNAKNTVYLQMNSLKPEDTAVYYCNARVARSNNGWYYYWGQGTQVTVSS”: the “polyreactivity (PSR sort gate)” value was “high polyreactivity”.

On to “QVQLVESGGGLVQAGGSLRLSCAASGRTFYKYAMGWYRQAPGKERELVAAISRRGGSTYYADSVKGRFTISRDNAKNTVYLQMNSLKPEDTAVYDCAADPDTKGFYVYRLVRVRYGYWGQGTQVTVSS”, for which the “polyreactivity (PSR sort gate)” value is “high polyreactivity”. Regarding “QVQLVESGGGLVQAGGSLRLSCAASGRTLARNAMGWDIQGPGKERELVASINGRTTRTYYADSVKGRFTISRDNAKNTVYLQMNSLKPEDTAVYYCAAERKNKYDYWGQGTQVTVSS”, the “polyreactivity (PSR sort gate)” value is “high polyreactivity”. Next, “QVQLVESGGGLVQAGGSLRLSCAASGSIFYTYAMGWYRQAPGKERELVAAISGTGTSTYYADSVKGRFTISRDHAKNTVYLQMNSLKPEDTAVYFCATHGGAAWGRYYWYYGYWGQGTQVTVSS”: “low polyreactivity”.
